The target in assay [1] is T1, Soluble CTLA-4-Ig (extracellular domain of human CTLA-4 fused to the Fc portion of human IgG1) (human, UniProt P16410 36-161, FITC-conjugated in the FACS binding assays).
T1 construct: extracellular domain; bought from R&D Systems; also called sCTLA-4-Ig; CTLA-4-Ig Fc; not shown: Fc portion of human IgG1
Kind of assay: binding assay, data not shown.

The target of assay [2] is T2, Soluble CD28-Ig (extracellular domain of human CD28 fused to the Fc portion of human IgG1) (human, UniProt P10747 19-152, biotin-conjugated (NHS-biotin) in the FACS binding assays).
T2 construct: extracellular domain; bought from R&D Systems; also called sCD28-Ig; CD28-Ig Fc; not shown: Fc portion of human IgG1
Nature of the assay: binding assay, data not shown.

The target of assay [3] is T1, Soluble CTLA-4-Ig (extracellular domain …). Kind of assay: two-color FACS of transfected 293 cells. The method, then: (§1) The labeled cells were subsequently handled at 4° C., washed twice with DMEM/10% FCS and incubated with 0.1 μg/ml Streptavidin-phycoerythrin (PE) (Pharmingen, San Diego, Calif.) in 100 μl for 15 min. Biotin binds the fluorescence marker Streptavidin-PE. (R-PE has an excitation maximum of 565 nanometers (nm) and an emission maximum of 578 nm. B-PE has excitation and emission maxima of 545 nm and 578 nm, respectively. FITC has excitation and emission maxima of 494 and 519, respectively.) The cells were again washed twice and resuspended in 200 μl medium with 5 μg/ml propidium iodide (PI). The cells were then analyzed using a FACSCalibur flow cytometer and CellQuest software (BDIS, San Jose, Calif.). Cell sorting was performed by flow-cytometry based cell sorting screening methods using FACS (Fluorescence-Activated Cell Sorting) Vantage SE cell sorter (BDIS) (Becton Dickinson; San Jose, Calif.). The staining concentration was determined for each labeled protein to provide a maximal Mean Fluorescence Intensity (MFI) and minimal background signal (e.g., optimum staining concentration was the concentration per 10⁶ cells).

Assay [4] concerns the target T2, Soluble CD28-Ig (extracellular domain …). Nature of the assay: two-color FACS of transfected 293 cells. The method, then: as §1
The target is the same in assay [5]. Nature of the assay: competitive FACS on transfected cells, biotin-sCD28-Ig with FITC-sCTLA-4-Ig; grade 0-2 of CD28/CTLA-4 ratio vs WT hB7-1.
In assay [6] the target is T1, Soluble CTLA-4-Ig (extracellular domain …). Kind of assay: flow cytometry of transfected cells, at least two experiments. For orientation: Flow cytometry measures light scatter and fluorescence of single cells or particles in a stream.
The target of assay [7] is T2, Soluble CD28-Ig (extracellular domain …). Kind of assay: flow cytometry of transiently transfected 293 cells.
The target in assay [8] is CD28 receptor on human T cells (human, UniProt P10747 19-220). Nature of the assay: cell-based or functional assay.

Positions count from the first letter of the chain named.

T1 sequence (P16410 36-161): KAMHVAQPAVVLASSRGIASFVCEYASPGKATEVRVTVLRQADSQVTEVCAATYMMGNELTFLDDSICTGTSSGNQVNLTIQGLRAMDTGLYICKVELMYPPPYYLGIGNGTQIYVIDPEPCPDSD

B1: Baboon B7-1 (ligand)
chain: VIHVTKEVKEVATLSCGHNVSVEELAQTRIYWQKEKKMVLTMMSGDMNIWPEYKNRTIFDITNNLSIVILALRPSDEGTYECVVLKYEKDAFKREHLAEVMLSVKADFPTPSITDFEIPPSNIRRIICSTSGGFPEPHLFWLENGEELNAINTTVSQDPGTELYTVSSKLDFNMTTNHSFVCLIKYGHLRVNQTFNWNTPKQEHFPDNLLPSWAITLISVNGIFVICCLTYCFAPRCRERRRNETLRRESVRPV
For B1, the binding result in assay [1] and in assay [2] was “binds” each time.

B2: Orangutan B7-1 (ligand)
chain: VIHVTKEVKEVATLSCGHNVSVEELAQTRIYWQKEKKMVLTMMSGDMNIWPEYKNRTIFDITNNLSIVILALRPSDEGTYECVVLKYEKDAFKREHLAEVTLSVKADFPTPSISDFEIPTSNIRRMICSTSGGFPEPHLSWLENGEELNAISTTVSQDPETELYAVSSKLDFNMTTNHSFMCLIKYGHLRVNQTFNWNTPKQEHFPDNLLPSWAITLISVNGIFVICCLTYCFAPRCRERRSNERLRRESVRPV
B2: the binding result in assay [1] and in assay [2] was “binds” in each case.

B3: Rhesus B7-1 (ligand)
chain: B1 chain with H138R, F140S, N152S, G160E, V181M, Y231H
notes: also called rhesus monkey B7-1
Take B3: the binding result in assay [3] and in assay [4] was “binds” each time.

B4: Round 2 CD28A2-5 (ligand)
chain: ITPKSVTKRVKETVMLSCDYNTSTEELTSLRIYWQKDSKMVLAILPGKVQVWPEYKNRTITDMNDNPRIVILALRLSDSGTYTCVIQKPDLKGAYKLEHLASVRLMIRADFPVPSITDIGHPAPNVKRIRCSASGGFPEPRLAWMEDGEELNAVNTTVDQDLDTELYSVSSELDFNMTSNHSFLCLVKYGDLTVSQTFYWQESKPTPSANQHLTWTIIIPVSAFGISVIIAVILTCLTCRNAAIRRQRRENEGKCKVLSVSIGTKLKFNR
For the molecule B4, in assay [5], the “Binding Score” value was found to be 0.

B5: Round 2 CD28B4-5* (ligand)
chain: SGITPKSVTKRVKETVMLSCDYNTSTEELTSLRIYWQKDSKMVLAILPGKVQVWPEYKNRTITDMNDNPRIVILALRLSDKGTYTCVVQKPDLKGAYKLEHLASVRLMIRADFPVPSITDIGHPAPNVKRIRCSASGGFPEPRLAWMEDGEELNAVNTTVDQDLDTELYSVSSELDFNVTNNHSIVCLIKYGELSVSQIFPWSKPKQEPPIDQLPFWVIIPVSGALVLTAVVLYCLACRHVARWKRTRRNEETVGTERLSPIYLGSAQSSG
As to B5, the “Binding Score” value in assay [5] came out at 0.

B6: Round 1 CD28BP-84 (ligand)
chain: GISQVTKSVKEMAALSCDYNISIDELARMRIYWQKDQQMVLSIISGQVEVWPEYKNRTFPDIINNLSLMILALRLSDKGTYTCVVQKNENGSFRREHLTSVTLSIRADSPVPSITDIGHPAPNVKRIRCSASGGFPEPRLAWMEDGEELNAVNTTVDQDLDTELYSVSSELDFNVTNNHSIVCLIKYGELSVSQIFPWSKPKQEPPIDQLPFWVIIPVSGALVLTAVVLYCLACRHVARWKRTRRNEETVGTERLSPIYLGSAQSSG
notes: also called R1clone 84; Clone 84
Consider B6, for which the binding result in assay [6] is reported as “binds”. Moreover, in assay [5], the “Binding Score” value turned out to be 1.

B7: Round 1 CD28BP-118 (ligand)
chain: B6 chain with S109F, G134D
notes: also called R1clone 118; Clone 118
As to B7, the binding result in assay [6] is given as “binds”. The “Binding Score” value in assay [5] worked out at 1.

B8: Round 2 CD28F11-8 (ligand)
chain: ITPKSVTKRVKETVMLSCDYNTSTEELTSLRIYWQKDSKMVLAILPGKVQVWPEYKNRTITDMNDNPRIVILALRLSDSGTYTCVIQKPVLKGAYKLEHLTSVRLMIRADFPVPTINDLGNPSPNIRRLICSTSGGFPRPHLYWLENGEELNATNTTLSQDPETKLYMISSELDFNMTSNLCLVKYGDLTVSQTFYWQESKPTPSANQHLTWTIIIPVSAFGISVIIAVILTCLTCRNAAIRRQRRENEVEMQSCSQSP
In the case of B8, in assay [5], the “Binding Score” value came out at 0.

B9: CD28BP-FLAG (CD28BP-15 with a FLAG-tag) (ligand)
chain: DYKDDDDKITPKSVTKRVKETVMLSCDYNTSTEELTSLRIYWQKDSKMVLAILPGKVQVWPEYKNRTITDMNDNPRIVILALRPSDSGTYTCVIQKPVLKGAYKLEHLASVRLMIRADFPVPTINDLGNPSPNIRRLICSTSGGFPRPHLYWLENGEELNATNTTVSQDPGTELYMISSELDFNVTNNHSIVCLIKYGELSVSQIFPWSKPKQEPPIDQLPFWVIIPVSGALVLTAVVLYCLACRHVARWKRTRRNEETVGTERLSPIYLGSAQSSG
notes: also called FLAG-construct of CD28BP-15
For B9, the binding result in assay [7] is “binds”.

B10: Round 2 CD28BP-15 (ligand)
chain: ITPKSVTKRVKETVMLSCDYNTSTEELTSLRIYWQKDSKMVLAILPGKVQVWPEYKNRTITDMNDNPRIVILALRPSDSGTYTCVIQKPVLKGAYKLEHLASVRLMIRADFPVPTINDLGNPSPNIRRLICSTSGGFPRPHLYWLENGEELNATNTTVSQDPGTELYMISSELDFNVTNNHSIVCLIKYGELSVSQIFPWSKPKQEPPIDQLPFWVIIPVSGALVLTAVVLYCLACRHVARWKRTRRNEETVGTERLSPIYLGSAQSSG
notes: also called clone R2 CD28BP-15; clone 15
Take B10: the “T cell proliferation (3H-thymidine incorporation), irradiated 293 transfectants with purified human T cells and anti-CD3 mAbs” value in assay [8] is around 10 fold. The “Binding Score” value in assay [5] came to 2.

The record behind these values is patent US20100261660A1 (published 2010).
